Assays:
[1] = target: T1, UBL domain of UBL4A (UBL4A_UBL), residues 1-74 (human, UniProt P11441 1-74, RED-NHS (amine reactive) dye, in the MST experiment only); assay: MST; labelled UBL at 0.4 µM, unlabelled SGTA_NT 400 µM to 24.4 nM; 100 mM MES pH 6.0, 150 mM KCl, 0.5 mM TCEP; 25 °C; Monolith NT.115; conditions: both partners purified
T1 sequence (looked up): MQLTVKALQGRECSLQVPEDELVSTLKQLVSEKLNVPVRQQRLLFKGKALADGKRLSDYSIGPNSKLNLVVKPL

[2] = target: T1, UBL domain of UBL4A (UBL4A_UBL), …; assay: ITC; 30 °C, 100 mM MES pH 6.0, 200 mM KCl; 20 injections of 2 µL SGTA_NT (dimer, 500 µM) into UBL at 50 µM (monomer); independent binding sites model; conditions: both partners purified
[3] = target: the molecule itself; assay: NMR solution structure; SGTA_NT dimer; mixed isotope labelling, filtered NOESY for intermolecular NOEs; 100 mM MES pH 6.0, 150 mM KCl, 35 °C; ARIA2.1

Kd [1]: 3.7 µM | stoichiometry N [1]: 1 SGTA dimer: UBL monomer | Kd [2]: 3 µM | dH [2]: 5900 ± 110 | stoichiometry N [2]: 0.949 ± 0.013
B1: SGTA N-terminal dimerisation domain (SGTA_NT), residues 1-69 (domain or fragment, UniProt O43765 1-69, looked up)
chain: MDNKKRLAYAIIQFLHDQLRHGGLSSDAQESLEVAIQCLETAFGVTVEDSDLALPQTLPEIFEAAATGK
stoichiometry N [3]: 2

— paper PMC4240585, “Solution Structure of the SGTA Dimerisation Domain and Investigation of Its Interactions with the Ubiquitin-Like Domains of BAG6 and UBL4A” (PLoS ONE, 2014)
